In general, Km refers to the concentration of substrate that gives half-maximal velocity.

The source of these data is patent publication US20070065896A1, “Methods and kits for quantifying metabolites or analytes” (priority 2003, published 2007).

A short description of series [1]: Specific activities of recombinant enzymes towards different substrates (Kredich and Tomkins). It is filed as biochemical. An excerpt: Specific activities (micromol/min/mg protein) towards different substrates
(§1) Assayed according to Kredich and Tomkins (Journal of Biological Chemistry 241, 4955-4965, 1966)

Series [2] in a line: Kinetic properties of recombinant enzymes. The following applies: ± SD, n in brackets. The class given is biochemical.
Excerpt: as §1

The mark [3] stands for this setting: substrate O-succinyl-L-homoserine.

B1: PA3107: Recombinant N-terminal His-tagged O-acetyl-L-homoserine thiol lyase from Pseudomonas aeruginosa, encoded by gene PA3107 (MetZ, Genbank AAA83435) (protein, UniProt P55218 1-403, looked up)
O-succinylhomoserine …: MTQDWDAGRLDSDLEGAAFDTLAVRAGQRRTPEGEHGEALFTTSSYVFRTAADAAARFAGEVPGNVYSRYTNPTVRTFEERIAALEGAEQAVATASGMSAILALVMSLCSSGDHVLVSRSVFGSTISLFDKYFKRFGIQVDYPPLSDLAAWEAACKPNTKLFFVESPSNPLAELVDIAALAEIAHAKGALLAVDNCFCTPALQQPLKLGADVVIHSATKYIDGQGRGMGGVVAGRGEQMKEVVGFLRTAGPTLSPFNAWLFLKGLETLRIRMQAHSASALALAEWLERQPGIERVYYAGLPSHPQHELARRQQSGFGAVVSFDVKGGRDAAWRFIDATRMVSITTNLGDTKTTIAHPATTSHGRLSPEDRARAGIGDSLIRVAVGLEDLDDLKADMARGLAAL
modifications: N-terminal His tag
For B1, the Specific activity is reported as under 0.1 micromol/min/mg protein in series [1] (substrate O-acetyl-L-homoserine), under 0.1 micromol/min/mg protein in series [1] (substrate O-acetyl-serine) and 139 micromol/min/mg protein in series [1] (setting [3]). Also, the Km is 800 ± 200 µM in series [2] (Km for Na2S, determined with 15 mM O-succinyl-L-homoserine) and 4400 ± 1000 µM in series [2] (Km for O-succinyl-L-homoserine). Moreover, the Vmax in series [2] (substrate Na2S) was 174.2 ± 39.8 (3) μmol/min/mg protein; in series [2] (setting [3]), 180.4 ± 21.0 (3) μmol/min/mg protein.
